# According to patent US20210162028A1, “Methods for Inducing Intermittent Fasting and Modulating Autophagy” (The Hong Kong Polytechnic University, priority 2019, published 2021):
# Entries after “also recorded” stand apart in the source; their conditions may differ.
# B1: N-ABD094-rhArg: recombinant human arginase fused to albumin binding domain ABD094 (SEQ ID NO: 50); engineered long-acting arginine-depleting enzyme (protein)
# chain: MHHHHHHDEAVDANSLAEAKEAANAELDSYGVSDFYKRLIDKAKTVEGVEALKDAILAALPSGSNNNNNNGSGGMSAKSRTIGIIGAPFSKGQPRGGVEEGPTVLRKAGLLEKLKEQECDVKDYGDLPFADIPNDSPFQIVKNPRSVGKASEQLAGKVAEVKKNGRISLVLGGDHSLAIGSISGHARVHPDLGVIWVDAHTDINTPLTTTSGNLHGQPVSFLLKELKGKIPDVPGFSWVTPCISAKDIVYIGLRDVDPGEHYILKTLGIKYFSMTEVDRLGIGKVMEETLSYLLGRKKRPIHLSFDVDGLDPSFTPATGTPVVGGLTYREGLYITEEIYKTGLLSGLDIMEVNPSLGKTPEEVTRTVNTAVAITLACFGLAREGNHKPIDYLNPPK
# modifications: N-ABD094-rhArg, Synthesized in the Lab
# notes: engineered long-acting arginine-depleting enzyme
# How the values were obtained:
# Type in all cases: in vivo, mouse
# [1] = system: hepatocellular carcinoma; assay: Frequency of hepatocellular carcinoma at autopsy
# Description: Development of neoplasm in the liver is one of the major characteristics of aging in C57BL/6J male mice with long-term feeding on a HFD, which may be related to the development of severe non-alcoholic fatty liver disease. Treatment with N-ABD094-rhArg [SEQ ID NO: 50] can effectively reverts hepatic steatosis and lower serum concentrations of liver damage biomakers ALT and AST (FIG. 7). Autopsy performed at the end of experiment confirmed the presence of hepatocellular carcinoma (FIG. 28A) in around 40% of C57BL/6J male mice that had been fed on a HFD for 46 weeks (12+34 weeks) starting from 5-week old [HFD (vehicle) group in FIG. 1] (FIG. 28B). The incidence rate even increased to 100% in mice fed on the HFD for 61 weeks (12+49 weeks) [HFD (vehicle) group in FIG. 3] (FIG. 28C). […] These findings support that rhArg has potent effects on prevention of liver cancer.
# [2] = Fat pad and organ mass at end of treatment; details: DIO C57BL/6J male mice on HFD, about 600 U once a week, 34 weeks
# Description: (§1) Other than WAT and BAT, obesity is associated with excessive accumulation of lipids in the liver (hepatic steatosis). Indeed, the liver of vehicle-treated DIO mice was markedly enlarged (FIG. 7A), with a mass about 3 times (4.68 g) that of the lean control (1.73 g) (FIG. 7B).
# (§2) Other than liver, obesity is also commonly associated with lipid accumulation in the kidney (renal steatosis) and heart (cardiac steatosis), causing lipotoxicity and dysfunction of these organs. Indeed, there was an increase in kidney and heart mass in DIO mice treated with vehicle (FIG. 8A and FIG. 9A).
# [3] = Fat pad and organ mass at end of treatment
# [4] = Glucose tolerance test (GTT)
# [5] = Whitening of brown adipose tissue (size, mass, H&E histology); details: DIO C57BL/6J male mice on HFD; 600 U once a week, 12 weeks
# Description: FIG. 53 illustrates that administration of 600 U N-ABD094-rhArg (SEQ ID NO: 50) once a week to C57BL/6J male mice with pre-existing HFD-induced obesity [HFD (rhArg) group] for 12 weeks could effectively reverse whitening of brown adipose tissue (BAT), with lipids stored as a large single globule (characteristic feature of white adipocytes) changing to storage of lipids in multiple small droplets (characteristic feature of brown adipocytes), which was in line with the findings of induction of lipophagy observed by TEM. […] (B) The mass of iBAT of the 3 groups of mice was in line with the size shown in A. *P<0.05, one-way ANOVA followed by Bonferroni test. Data are expressed as mean±SEM, n=5 for each group.
# After prolonged feeding on a HFD, there was a further increase in the size (FIG. 53A) and weight of the interscapular BAT (FIG. 53B) in vehicle-treated DIO mice [HFD (vehicle) group] in comparison to the lean control mice [CD (vehicle) group], which was correlated with the presence of massive amount of enlarged white-like unilobular cells (FIG. 53A). As observed under transmission electron microscopy, brown adipocyte in mice fed with HFD [HFD (vehicle) group] had massive enlarged lipid droplets (FIG. 52A). […] Many autophagosomes were actively forming and engulfing the lipid droplets (FIG. 52B). […]
# [6] = Rotarod test
# [7] = system: LC3-II/LC3-I; assay: Autophagic flux in liver, LC3-II/LC3-I western blot with chloroquine; details: DIO male mice on HFD; 600 U once a week, 4 weeks; Day 3 of cycle
# Procedure: Ratio of LC3-II/LC3-I proteins was used as a marker of autophagy and was semiquantified by western blotting. Chloroquine (an autophagy inhibitor, CQ) was injected 5 hr to accumulate autophagosome in the liver before tissue collection. *P<0.05, one-way ANOVA followed by Bonferroni test. Data are expressed as mean±SEM, n=3 for each group.
# Autophagy is involved in cell growth, survival, development and death. Impaired autophagic flux has been linked to a variety of human pathophysiological processes, including neurodegeneration, cancer, myopathy, cardiovascular and immune-mediated disorders. There is a growing need to identify and quantify the status of autophagic flux in different pathological conditions. Autophagy is a highly dynamic and complex process that is regulated at multiple steps. Autophagic flux can be detected by LC3-II turnover using western blot analysis in the presence and absence of lysosomal degradation inhibitors, chloroquine (CQ). If autophagic flux is occurring, the level of LC3-II will increase in the presence of a lysosomal degradation inhibitor because the transit of LC3-II through the autophagic pathway will be blocked.
# [8] = Liver and kidney damage biomarkers (serum ALT/AST, urine albumin-to-creatinine); details: DIO C57BL/6J male mice on HFD; about 600 U once a week, 34 weeks
# Description: as §1, §2
# [9] = DIO C57BL/6J male mice on HFD, 300 U rhArg once a week and/or 300 mg/kg metformin daily
# [10] = DIO C57BL/6J male mice on HFD, 600 U once a week, 5 weeks (artificial IF experiment)
molecule,measurement,setting,value
B1,Development of hepatocellular carcinoma,"[1]; DIO C57BL/6J male mice on HFD, weekly for 34 weeks, vehicle around 40%",none of the mice developed hepatocellular carcinoma
same,Development of hepatocellular carcinoma,"[1]; DIO C57BL/6J male mice on HFD, weekly for 49 weeks, vehicle 100%",none of the mice developed hepatocellular carcinoma
same,Development of hepatocellular carcinoma,"[1]; DIO ICR female mice on HFD, weekly for 56 weeks, vehicle over 30%",none of the mice in HFD (rhArg) group developed hepatocellular carcinoma; also recorded: effectively prevent the development of hepatocellular carcinoma
same,Kidney and heart mass,[2],significantly less than that of the vehicle-treated DIO mice
same,"Mass of perirenal, inguinal and interscapular fat pad, relative to DIO mice treated with vehicle",[2],less than 20%
same,Liver mass,"[2]; vehicle DIO 4.68 g, lean control 1.73 g",1.39 g
same,"Fat pad mass of perirenal and inguinal WAT, interscapular BAT and liver mass","[3]; 17-month old C57BL/6J male mice on chow diet, once a week, 21 weeks",significant reduction in the fat pad mass
same,Mass of liver,"[3]; 17-month old C57BL/6J male mice on chow diet, once a week, 21 weeks, versus CD Old (vehicle) and CD Young (vehicle)",the lowest amongst all 3 groups
same,"Mass of organs including liver, kidney and BAT",[3]; [9],cannot reduce the mass of most organs
same,Visceral and subcutaneous fat mass,[3]; [9],did not reduce body fat
same,Fat pad mass of perirenal and inguinal WAT and interscapular BAT,[3]; [10],marked reduction in the fat pad mass
same,Liver mass,[3]; [10],prominently reduced to the same extent for both groups
same,Liver weight,"[3]; DIO C57BL/6J male mice on HFD, 600 U once a week, 12 weeks",the weight was similar to the lean control
same,Fatty pancreas,"[3]; DIO C57BL/6J male mice on HFD, half dose alone",can also reverse the fatty pancreas
same,"Mass of organs including liver, pancreas and BAT","[3]; DIO C57BL/6J male mice on HFD, rhArg once a week alone or 0.33 mg RA daily alone",can already reduce the mass of most organs
same,Visceral and subcutaneous fat mass,"[3]; DIO C57BL/6J male mice on HFD, rhArg once a week and/or 0.33 mg RA daily",did not reduce body fat
same,"Fat pad mass (WAT, BAT) and liver, kidney and heart mass","[3]; DIO ICR female mice on HFD, once a week, 56 weeks",significantly less than that of HFD-fed mice treated with vehicle
same,Glucose tolerance in GTT,"[4]; 16-month old DIO C57BL/6J male mice on HFD, once a week, at 12 weeks",effectively reverse impaired glucose tolerance
same,Glucose tolerance in GTT,"[4]; 17-month old C57BL/6J male mice on chow diet, once a week, at 15 weeks",to a level better than mice in CD Young (vehicle) group; also recorded: effectively improve glucose tolerance
same,Glucose tolerance in GTT,"[4]; DIO C57BL/6J male mice on HFD, 300 U/week rhArg and/or 300 mg/kg metformin, after 7 weeks",significant improvement on glucose tolerance
same,Glucose tolerance in GTT,"[4]; DIO C57BL/6J male mice on HFD, 600 U once a week, after 3 weeks (reduced daily food intake experiment)",improved glucose tolerance
same,Glucose tolerance in GTT,"[4]; DIO C57BL/6J male mice on HFD, 600 U once a week, at 3 weeks (artificial IF experiment)",significant improvement in glucose tolerance by 3 weeks of treatment
same,Glucose tolerance in GTT,"[4]; DIO C57BL/6J male mice on HFD, about 600 U once a week, at 15 and 31 weeks",significant improvement in glucose tolerance to a level comparable with the lean control mice; also recorded: effectively reverse impaired glucose tolerance
same,Glucose tolerance in GTT,"[4]; DIO C57BL/6J male mice on HFD, rhArg weekly and/or 0.33 mg/day RA, after 7 weeks",cannot relieve glucose intolerance
same,Glucose tolerance in GTT,"[4]; DIO ICR female mice on HFD, once a week, at 16 and 30 weeks",Improved glucose tolerance
same,White-like unilobular cells in BAT (histology),[5],almost complete remission of white-like unilobular cells
same,Rotarod test: latency to fall,"[6]; DIO C57BL/6J male mice on HFD, weekly for 30 weeks",latency similar to mice in CD (vehicle) group
same,Rotarod test: performance,"[6]; DIO ICR female mice on HFD, weekly, at 55 weeks",significantly better than mice in HFD (vehicle) group
same,LC3-II/LC3-I ratio in liver upon chloroquine injection (autophagic flux),[7],dramatic increase; also recorded: enhancement of autophagic flux
same,Ratio of albumin-to-creatinine in urine,[8],levels similar to the age-matched lean control mice
same,Serum concentrations of ALT and AST,[8],restored to levels comparable to the lean control mice
